According to patent US20050203007A1 (REGENTS OF THE UNIVERSITY OF MICHIGAN, published 2005):
Changes are numbered by the printed parent chain. One block for each binder: values may come before it.

Legend:
secreted, soluble Kex2 [1] = target: T1, secreted, soluble Kex2 (Saccharomyces cerevisiae, UniProt P13134 114-613, limits assumed); assay: affinity of purified variants, enzyme inhibition
T1 construct: Secreted, soluble construct; also called kexin
T1 sequence (looked up): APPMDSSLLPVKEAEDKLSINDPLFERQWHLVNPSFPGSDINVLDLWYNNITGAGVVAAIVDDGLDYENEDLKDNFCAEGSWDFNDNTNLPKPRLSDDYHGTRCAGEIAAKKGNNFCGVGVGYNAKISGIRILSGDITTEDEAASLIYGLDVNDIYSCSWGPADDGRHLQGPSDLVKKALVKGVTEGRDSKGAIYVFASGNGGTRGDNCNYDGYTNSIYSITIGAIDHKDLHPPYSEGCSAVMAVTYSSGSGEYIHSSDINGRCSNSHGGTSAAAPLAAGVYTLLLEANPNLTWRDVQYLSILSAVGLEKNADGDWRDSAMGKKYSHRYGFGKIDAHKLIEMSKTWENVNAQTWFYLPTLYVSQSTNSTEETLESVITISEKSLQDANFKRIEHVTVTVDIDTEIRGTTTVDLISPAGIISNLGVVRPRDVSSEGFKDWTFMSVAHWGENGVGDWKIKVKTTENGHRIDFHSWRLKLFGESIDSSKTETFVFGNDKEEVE

secreted, soluble furin [2] = target: T2, secreted, soluble furin (human, UniProt P09958 108-715, limits assumed); assay: rapid furin inhibition assay; table lists substitutions with equal or enhanced inhibition of furin relative to the template
T2 construct: Secreted, soluble construct; also called human furin
Protocol: 3. Rapid screening of libraries. Libraries were introduced into E. coli BL21 (DE3) cells and individual, cloned transformants were grown by shaking at 37° C. in 200 μl LB containing […] kanamycin in 96-well, 0.45 μm GHP membrane filter plates (Gelman) (FIG. 2). When O.D. 600 values reached 0.4, 60 μl of culture were transferred to secondary 96-well plates (Falcon), adjusted to 10% glycerol, and stored at −80° C. These frozen stocks served as master copies of the libraries. IPTG was added to the cultures to a final concentration of 1 mM, and the cultures were allowed to express eglin c variants for one hour in the filter plate. Expressed eglin c variants were extracted from the cells with 50 mM Tris-HCl pH 8.0 containing 2 mM EDTA following freezing and thawing. These extracts were collected as filtrates by centrifugation of the filter plate above a second plate. The filtrates, representing partially purified eglin c variants, were analyzed using a rapid fluorescence-based assay for processing enzyme inhibition as described below in Section 5. […] Frozen cells were cultured in 50 to 100 ml culture volumes, and DNA maxipreps were performed; the DNA preparations were then sequenced by automated DNA sequencing. Selected variants were expressed and purified on a larger scale, and affinities for furin or Kex2 were examined quantitatively (see below).
5. Rapid protease inhibition assay. Novel eglin variants were diluted 50-fold and incubated with secreted, soluble furin (0.5 nM) for 15 min in 96-well plates. The furin substrate (Boc-Arg-Val-Arg-Arg-MCA) was added, and release of AMC was monitored continuously in a 96-well fluorescence plate reader for 20 min, as described under Example 1. […] The plasmid DNA encoding such eglin c variant inhibitors were isolated and sequenced.

human PC7 [3] = target: T3, human PC7 (human, UniProt Q16549 142-667, limits assumed); assay: enzyme inhibition, purified variant
T3 sequence (looked up): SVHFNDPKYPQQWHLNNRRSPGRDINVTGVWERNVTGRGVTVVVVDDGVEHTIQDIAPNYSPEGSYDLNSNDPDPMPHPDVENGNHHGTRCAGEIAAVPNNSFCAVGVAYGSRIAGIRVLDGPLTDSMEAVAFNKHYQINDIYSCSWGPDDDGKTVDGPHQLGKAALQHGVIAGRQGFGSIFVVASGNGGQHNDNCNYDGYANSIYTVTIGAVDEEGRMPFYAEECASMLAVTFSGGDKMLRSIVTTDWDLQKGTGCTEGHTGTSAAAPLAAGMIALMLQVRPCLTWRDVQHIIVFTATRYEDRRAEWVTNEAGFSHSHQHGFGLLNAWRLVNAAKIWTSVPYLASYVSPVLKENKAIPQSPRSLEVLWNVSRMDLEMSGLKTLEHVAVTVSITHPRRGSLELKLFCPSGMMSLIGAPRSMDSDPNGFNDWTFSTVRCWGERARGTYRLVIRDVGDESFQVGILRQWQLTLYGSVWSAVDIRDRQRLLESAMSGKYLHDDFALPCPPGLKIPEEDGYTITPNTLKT

secreted, soluble Kex2 [4] = target: T1, secreted, soluble Kex2; assay: enzyme inhibition, purified variant
secreted, soluble furin [5] = target: T2, secreted, soluble furin; assay: enzyme inhibition, purified variant
secreted, soluble Kex2 [6] = target: T1, secreted, soluble Kex2; assay: enzyme inhibition, purified variant; remark: listed apart in the source
Protocol: (§1) Affinities of eglin variants with secreted, soluble Kex2 (hereafter “Kex2”; Brenner, C. and Fuller, R. S. (1992) Proc. Natl. Acad. Sci. USA 89: 922-926) and secreted, soluble furin (hereafter, “furin”; Bravo, D. A. et al (1994) J. Biol. Chem. 269: 25830-25837; and Komiyama & Fuller (2000) Biochemistry 39: 15156-15165) were measured by incubating variants with the enzymes (˜0.5 to 2.0 nM) for 45 min to 1 h at 21° C. in one of two enzyme assay buffers. For Kex2, the buffer was 200 mM Bistris (pH 7.27) containing 1 mM CaCl₂ and 0.1% Triton X-100; and for furin, the buffer was 20 mM NaMES (pH 7.0) containing 1 mM CaCl₂ and 0.1% Triton X-100 for furin. 100 to 200 μL aliquots of reaction mixtures were transferred into triplicate wells of opaque 96 well plates (Costar), and residual enzyme activity was measured with an fmax fluorescence micro plate reader (Molecular Devices) by monitoring hydrolysis of a fluorogenic substrate Boc-Arg-Val-Arg-Arg-MCA. Data were graphically analyzed (KaleidaGraph) with an equation developed by Green and Work (1953). Site-directed mutagenesis at P2 and P6 of eglin c generated temporary inhibitors (Table 3) and exhausted possibility to improve affinity further with this approach.

secreted, soluble furin [7] = target: T2, secreted, soluble furin; assay: enzyme inhibition, purified variant; remark: listed apart in the source
Protocol: as §1

human PC7 [8] = target: T3, human PC7; assay: enzyme inhibition, purified variant; Kassoc
secreted, soluble Kex2 [9] = target: T1, secreted, soluble Kex2; assay: enzyme inhibition, purified variant; Kassoc
secreted, soluble furin [10] = target: T2, secreted, soluble furin; assay: enzyme inhibition, purified variant; Kassoc
secreted, soluble Kex2 [11] = target: T1, secreted, soluble Kex2; assay: enzyme inhibition, fluorogenic substrate; * temporary inhibition
Protocol: as §1

secreted, soluble furin [12] = target: T2, secreted, soluble furin; assay: as above
Protocol: as §1

secreted, soluble Kex2 [13] = target: T1, secreted, soluble Kex2; assay: equilibrium enzyme inhibition, fluorogenic substrate
Protocol: as §1

secreted, soluble furin [14] = target: T2, secreted, soluble furin; assay: as above
Protocol: as §1

secreted, soluble Kex2 [15] = target: T1, secreted, soluble Kex2; assay: equilibrium enzyme inhibition
Protocol: (§2) Thus, R1-eglin refers to substitution of Arg at position P1.
(§3) Affinities of eglin variants with secreted, soluble Kex2 (hereafter “Kex2”; Brenner, C. and Fuller, R. S. (1992) Proc. Natl. Acad. Sci. USA 89: 922-926) and secreted, soluble furin (hereafter, “furin”; Bravo, D. A. et al (1994) J. Biol. Chem. 269: 25830-25837; and Komiyama & Fuller (2000) Biochemistry 39: 15156-15165) were measured by incubating variants with the enzymes (˜0.5 to 2.0 nM) for 45 min to 1 h at 21° C. in one of two enzyme assay buffers. For Kex2, the buffer was 200 mM Bistris (pH 7.27) containing 1 mM CaCl₂ and 0.1% Triton X-100; and for furin, the buffer was 20 mM NaMES (pH 7.0) containing 1 mM CaCl₂ and 0.1% Triton X-100 for furin.

secreted, soluble furin [16] = target: T2, secreted, soluble furin; assay: equilibrium enzyme inhibition
Protocol: as §2, §3

secreted, soluble furin [17] = target: T2, secreted, soluble furin; assay: calculated from kon (progress curves) and Ka
Protocol: In some aspects of the present invention, biological application of the eglin c variants of the present invention as inhibitors of processing in vivo depends upon the rate of binding to target enzymes, where it is critical. Therefore, the rate of action of eglin variants with Kex2 and furin was examined by incubating 5×10⁻¹⁰ M enzyme with inhibitor at molar ratios of inhibitor to enzyme ranging from 10 to 80. […] The relationship between kobs and inhibitor concentration was linear. The values of kₒₙ were determined from the slope of such curves, and dissociation rate constants (koff) were calculated (koff=kₒₙ/Kₐ). For R4R1-eglin, koff was calculated to be 2×10⁻⁴s⁻¹ for Kex2, and 3×10⁻⁴s⁻¹ for furin. […] Similarly, the t_{1/2} of the complex of M4R1-eglin with Kex2 was estimated to be 3 h. For complex of R4K1-eglin with furin, koff was calculated to be 2×10⁻⁴s⁻¹ implying that the koff and t_{1/2} for this complex are similar to those for the complex of R4R1-eglin with furin.

T2 sequence (P09958 108-715 limits assumed): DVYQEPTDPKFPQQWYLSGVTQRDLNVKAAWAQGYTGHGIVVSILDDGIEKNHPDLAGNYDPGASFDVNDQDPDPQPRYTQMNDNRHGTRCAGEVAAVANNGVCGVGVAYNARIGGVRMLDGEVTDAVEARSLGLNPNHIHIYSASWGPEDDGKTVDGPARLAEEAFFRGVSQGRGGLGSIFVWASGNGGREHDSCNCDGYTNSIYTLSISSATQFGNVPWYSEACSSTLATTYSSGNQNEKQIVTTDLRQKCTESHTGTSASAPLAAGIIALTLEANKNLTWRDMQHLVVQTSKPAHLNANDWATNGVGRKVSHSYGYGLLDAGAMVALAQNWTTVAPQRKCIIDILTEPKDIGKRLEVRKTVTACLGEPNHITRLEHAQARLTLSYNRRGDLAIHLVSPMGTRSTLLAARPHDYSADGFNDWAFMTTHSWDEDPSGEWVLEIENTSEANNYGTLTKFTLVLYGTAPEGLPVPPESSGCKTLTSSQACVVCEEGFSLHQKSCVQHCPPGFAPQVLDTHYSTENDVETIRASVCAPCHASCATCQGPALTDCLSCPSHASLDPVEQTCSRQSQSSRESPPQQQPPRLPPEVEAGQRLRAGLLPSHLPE

B3: M4K2R1-eglin (designed binder)
chain: SMGSELKSFPEVVGKTVDQAREYFTLHYPQYDVYFLPEGSMVKRDLRYNRVRVFYNPGTNVVNHVPHVG
notes: N-terminal Met removed
- Ki (secreted, soluble Kex2 [11]): 0.59 nM
- Ki (secreted, soluble furin [12]): 83 nM

B4: R4K1-eglin (designed binder)
chain: B3 chain with M41R, K43T, R44K
notes: N-terminal Met removed; also called R4K1-template
- Ki (secreted, soluble Kex2 [13]): 2.5 nM
- Ki (secreted, soluble furin [14]): 38 nM
- fold decrease of Ka relative to R4R1-eglin (secreted, soluble Kex2 [15]): 2.8 fold
- fold higher affinity for Kex2 than for furin (secreted, soluble Kex2 [15]): ~20 fold
- fold reduction of Ka relative to R4R1-eglin (secreted, soluble furin [16]): 15.4 fold
- Ki (secreted, soluble Kex2 [6]): 2.5 nM
- Ki ratio (to R4K1- template) (secreted, soluble Kex2 [6]): 1
- Ki (secreted, soluble furin [7]): 38 nM
- Ki ratio (to R4K1- template) (secreted, soluble furin [7]): 1
- koff (secreted, soluble furin [17]): 0.0002 s⁻¹

B5: K2R1-eglin (designed binder)
chain: B3 chain with M41P
notes: N-terminal Met removed
- Ki (secreted, soluble Kex2 [11]): 0.67 nM
- Ki (secreted, soluble furin [12]): 100 nM

B6: R6R4R1-eglin (designed binder)
chain: B3 chain with G39R, M41R, K43T
notes: N-terminal Met removed; also called Gly40 Arg on R4R1-template
- Ki (secreted, soluble Kex2 [13]): 0.29 nM
- Ki (secreted, soluble furin [12]): 2 nM

B9: R4K2R1-eglin (designed binder)
chain: B3 chain with M41R
notes: N-terminal Met removed
- Ki (secreted, soluble Kex2 [11]): ~0.5 nM
- Ki (secreted, soluble furin [12]): ~0.5 nM

Next, values leading:

- binding result (secreted, soluble Kex2 [1]): binds
- binding result (secreted, soluble furin [2]): binds
B1: Glu39His-R4R1-eglin (designed binder)
chain: B3 chain with E38H, M41R, K43T

- Ki (human PC7 [3]): 1.8 nM
- Ki (secreted, soluble Kex2 [4]): 0.056 nM
- Ki (secreted, soluble furin [5]): 0.3 nM
- Ki (secreted, soluble Kex2 [6]): 0.045 nM
- Ki ratio (to R4R1- template) (secreted, soluble Kex2 [6]): 0.05
- fold enhanced affinity (relative to R4R1-eglin) (secreted, soluble Kex2 [6]): 16 fold
- Ki (secreted, soluble furin [7]): 0.33 nM
- Ki ratio (to R4R1- template) (secreted, soluble furin [7]): 0.132
- fold enhanced affinity (relative to R4R1-eglin) (secreted, soluble furin [7]): 10 fold
- Ka (human PC7 [8]): 5.6e+08 M⁻¹
- Ka (secreted, soluble Kex2 [9]): 1.8e+10 M⁻¹
- Ka (secreted, soluble furin [10]): 3e+09 M⁻¹
B2: Tyr49Asp-R4R1-eglin (designed binder)
chain: B3 chain with M41R, K43T, Y48D
notes: R4R1 template; N-terminal Met removed; also called Asp49-R4R1-eglin; Asp49-R4R1-

- binding result (secreted, soluble Kex2 [1]): binds
- binding result (secreted, soluble furin [2]): binds
B7: Glu39Pro-R4R1-eglin (designed binder)
chain: B3 chain with E38P, M41R, K43T

- binding result (secreted, soluble Kex2 [1]): binds
- binding result (secreted, soluble furin [2]): binds
B8: Glu39Tyr-R4R1-eglin (designed binder)
chain: B3 chain with E38Y, M41R, K43T

- binding result (secreted, soluble Kex2 [1]): binds
- binding result (secreted, soluble furin [2]): binds
B10: Glu39Ser-R4R1-eglin (designed binder)
chain: B3 chain with E38S, M41R, K43T
